Data from US8962819B2, “Anti-C5 alpha antibodies” (Adienne S.A., priority 2002, dated 2015).
“Also recorded” adds a separate entry of the source.

Experiments:
C5 alpha chain = molecular target: T1, C5 alpha chain (Homo sapiens, UniProt P01031); experiment: Immunoblotting on separated C5 chains; format: binding; conditions: 100 ng chain, FIG. 2 lane 1
T1 construct: Lane 1: 100 ng of C5 alpha chain; lane 2: 100 ng of beta chain; purchased Quidel
Experimental: (§1) The alpha and beta chains of C5 were electrophoretically separated by means of SDS-PAGE in 10% polyacrylamide and then transferred onto nitrocellulose. […] Lane 1: 100 ng of C5 alpha chain; lane 2: 100 ng of beta chain; lane 3: mixture of the two chains. […] It can be seen that scFv TSA-12/22 recognises the alpha chain of C5 in lane 1, but not the beta chain in lane 2.
(§2) Purified proteins. Purified components C4 to C9 were purchased from Quidel (Saint Diego, Calif.) and the human recombinant C5a component was purchased from SIGMA-ALDRICH® S.r.1. (Milan, Italy). C5 alpha and beta subunits were obtained by incubating 50 μg of C5 diluted in 0.55 M TRIS-HCl pH 8.1 containing DTT (0.02 M) for 30 min at room temperature (RT), followed by treatment with iodoacetamide (0.12 M) for 1 hour at RT. Alpha and beta chains were purified by gel filtration on Superose 12 (Pharmacia Biotech, Milan, Italy) in Fast Protein Liquid Chromatography (FPLC) and purity was assessed by SDS-PAGE in non-reducing conditions.
(§3) It was first characterised, by means of the Western-blotting technique, whether the TS-A12/22 antibody recognises the alpha or beta of subunit of the C5 complement component prepared as described in Materials. Briefly the two subunits were electrophoresed in separate wells and transferred on nitrocellulose membranes. A solution containing Tris 50 mM pH 7.6, 0.5 M NaCl and 4% skimmed powder milk was used to block non-specific sites for 1 hour at 37° C. […] The enzymatic reaction was developed with blue tetrazolium and 5-bromo-4-chlorine-3-indolil phosphate (SIGMA-ALDRICH®, 0.30 mg/ml) diluted in 0.1 M Tris-HCl pH 9.5 containing 0.1 M NaCl and 5 mM MgCl2. Rainbow RPN 756 ([…]™ Italy (a trademark of General Electric Healthcare Limited)) were used as molecular weight markers.

C5 beta chain = molecular target: T2, C5 beta chain (Homo sapiens, UniProt P01031); experiment: Immunoblotting on separated C5 chains; format: binding; conditions: 100 ng chain, FIG. 2 lane 2
T2 construct: Lane 1: 100 ng of C5 alpha chain; lane 2: 100 ng of beta chain; purchased Quidel
T2 sequence (P01031 19-673 limits assumed): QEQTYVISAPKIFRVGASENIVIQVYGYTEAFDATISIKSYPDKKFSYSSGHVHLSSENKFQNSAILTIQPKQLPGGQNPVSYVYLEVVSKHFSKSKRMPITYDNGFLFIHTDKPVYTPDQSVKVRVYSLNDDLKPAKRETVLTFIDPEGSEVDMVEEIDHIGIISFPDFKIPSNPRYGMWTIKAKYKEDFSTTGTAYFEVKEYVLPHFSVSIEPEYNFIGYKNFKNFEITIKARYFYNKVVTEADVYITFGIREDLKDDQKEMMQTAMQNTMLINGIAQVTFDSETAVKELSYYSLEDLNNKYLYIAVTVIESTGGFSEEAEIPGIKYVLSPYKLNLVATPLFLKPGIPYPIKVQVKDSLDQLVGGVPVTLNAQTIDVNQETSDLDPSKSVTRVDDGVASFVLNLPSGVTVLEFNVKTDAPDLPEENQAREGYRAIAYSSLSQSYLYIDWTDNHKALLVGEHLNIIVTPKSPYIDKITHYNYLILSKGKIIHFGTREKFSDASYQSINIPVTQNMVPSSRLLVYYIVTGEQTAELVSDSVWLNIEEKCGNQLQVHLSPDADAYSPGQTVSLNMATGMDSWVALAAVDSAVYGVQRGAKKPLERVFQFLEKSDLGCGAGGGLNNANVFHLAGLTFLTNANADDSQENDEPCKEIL
Experimental: as §1, §2, §3

[1] = molecular target: T3, C5 hemolytic activity in human serum (Homo sapiens, UniProt P01031); experiment: Inhibition of C5 hemolytic activity in serum; format: biochemical; conditions: FIG. 5A
T3 construct: from tissue; host or cells: human serum
Experimental: (§4) Measurements were performed as described in example 8, using sera from human (panel A), rat (panel B), rabbit (panel C), mouse (panel D). Since the amino acid sequence corresponding to the cleavage site of convertase on the C5 alpha chain is conserved in several animal species, it was furthermore evaluated, by hemolytic assay, the ability of TS-A12/22 antibody to inhibit conversion of C5 to C5a also in rabbit, mouse and rat sera.

[2] = molecular target: T4, C5 hemolytic activity in mouse serum (Mus musculus, UniProt P06684); experiment: Inhibition of C5 hemolytic activity in serum; format: biochemical; conditions: FIG. 5D
T4 construct: from tissue; host or cells: mouse serum
Experimental: as §4

[3] = system: C5 hemolytic activity in rabbit serum; experiment: Inhibition of C5 hemolytic activity in serum; format: biochemical
Experimental: as §4

[4] = molecular target: T5, C5 hemolytic activity in rat serum (Rattus norvegicus, UniProt P08650); experiment: Inhibition of C5 hemolytic activity in serum; format: biochemical
T5 construct: from tissue; host or cells: rat serum
Experimental: as §4

C3 = C3 (Homo sapiens, UniProt P01024); experiment: Specificity on other complement components; format: binding
Experimental: (§5) (The specificity of TS-A12/22 antibody was evaluated also on other components of the complement cascade, as for instance C3 and C4, which are structurally similar to C5, but cross-reactivity was not found).

C4 = experiment: Specificity on other complement components; format: binding
Experimental: as §5

T5 sequence (P08650 679-1681 limits assumed): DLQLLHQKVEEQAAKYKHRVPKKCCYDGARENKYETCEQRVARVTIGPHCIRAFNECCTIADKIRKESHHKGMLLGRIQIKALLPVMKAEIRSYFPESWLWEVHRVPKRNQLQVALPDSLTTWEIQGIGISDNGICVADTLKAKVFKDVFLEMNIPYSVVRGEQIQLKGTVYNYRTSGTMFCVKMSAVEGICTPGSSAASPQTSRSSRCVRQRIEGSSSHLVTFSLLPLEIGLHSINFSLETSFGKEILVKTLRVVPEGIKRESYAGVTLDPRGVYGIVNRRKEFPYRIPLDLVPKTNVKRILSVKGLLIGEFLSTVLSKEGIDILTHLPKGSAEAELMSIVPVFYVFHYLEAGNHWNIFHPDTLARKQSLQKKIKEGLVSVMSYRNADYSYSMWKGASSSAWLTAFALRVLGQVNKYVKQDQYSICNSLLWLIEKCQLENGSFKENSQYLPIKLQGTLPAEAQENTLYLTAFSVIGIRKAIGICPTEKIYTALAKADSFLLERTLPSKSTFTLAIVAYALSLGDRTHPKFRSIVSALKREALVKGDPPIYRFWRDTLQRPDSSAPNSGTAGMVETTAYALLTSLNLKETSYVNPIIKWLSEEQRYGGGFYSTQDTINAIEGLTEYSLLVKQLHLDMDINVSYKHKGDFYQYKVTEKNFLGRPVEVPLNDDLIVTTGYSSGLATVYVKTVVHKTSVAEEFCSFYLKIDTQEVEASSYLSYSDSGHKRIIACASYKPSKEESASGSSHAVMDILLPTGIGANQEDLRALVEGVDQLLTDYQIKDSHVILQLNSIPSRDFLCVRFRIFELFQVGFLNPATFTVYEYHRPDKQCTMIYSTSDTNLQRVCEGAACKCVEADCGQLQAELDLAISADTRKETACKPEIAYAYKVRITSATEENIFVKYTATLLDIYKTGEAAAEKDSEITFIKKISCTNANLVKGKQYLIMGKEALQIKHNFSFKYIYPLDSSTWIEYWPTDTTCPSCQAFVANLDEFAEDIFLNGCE
T5 sequence (P08650 19-674 limits assumed): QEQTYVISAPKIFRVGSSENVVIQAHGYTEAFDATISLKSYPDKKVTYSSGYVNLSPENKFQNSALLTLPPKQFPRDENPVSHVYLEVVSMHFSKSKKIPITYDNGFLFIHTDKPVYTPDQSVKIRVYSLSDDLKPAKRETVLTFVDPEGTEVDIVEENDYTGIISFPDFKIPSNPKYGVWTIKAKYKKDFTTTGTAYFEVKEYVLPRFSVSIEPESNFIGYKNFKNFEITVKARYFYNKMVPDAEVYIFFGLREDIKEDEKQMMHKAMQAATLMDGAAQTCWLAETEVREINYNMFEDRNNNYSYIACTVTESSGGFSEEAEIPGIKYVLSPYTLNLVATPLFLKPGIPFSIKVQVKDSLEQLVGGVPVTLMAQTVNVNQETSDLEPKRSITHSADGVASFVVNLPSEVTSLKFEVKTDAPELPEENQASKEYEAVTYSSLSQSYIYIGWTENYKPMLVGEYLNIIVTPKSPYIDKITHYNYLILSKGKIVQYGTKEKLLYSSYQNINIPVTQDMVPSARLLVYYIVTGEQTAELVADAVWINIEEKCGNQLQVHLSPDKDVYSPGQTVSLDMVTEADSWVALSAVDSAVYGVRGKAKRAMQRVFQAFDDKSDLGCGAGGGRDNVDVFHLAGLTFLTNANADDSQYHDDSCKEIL
Sequence of C3 (P01024 23-1663): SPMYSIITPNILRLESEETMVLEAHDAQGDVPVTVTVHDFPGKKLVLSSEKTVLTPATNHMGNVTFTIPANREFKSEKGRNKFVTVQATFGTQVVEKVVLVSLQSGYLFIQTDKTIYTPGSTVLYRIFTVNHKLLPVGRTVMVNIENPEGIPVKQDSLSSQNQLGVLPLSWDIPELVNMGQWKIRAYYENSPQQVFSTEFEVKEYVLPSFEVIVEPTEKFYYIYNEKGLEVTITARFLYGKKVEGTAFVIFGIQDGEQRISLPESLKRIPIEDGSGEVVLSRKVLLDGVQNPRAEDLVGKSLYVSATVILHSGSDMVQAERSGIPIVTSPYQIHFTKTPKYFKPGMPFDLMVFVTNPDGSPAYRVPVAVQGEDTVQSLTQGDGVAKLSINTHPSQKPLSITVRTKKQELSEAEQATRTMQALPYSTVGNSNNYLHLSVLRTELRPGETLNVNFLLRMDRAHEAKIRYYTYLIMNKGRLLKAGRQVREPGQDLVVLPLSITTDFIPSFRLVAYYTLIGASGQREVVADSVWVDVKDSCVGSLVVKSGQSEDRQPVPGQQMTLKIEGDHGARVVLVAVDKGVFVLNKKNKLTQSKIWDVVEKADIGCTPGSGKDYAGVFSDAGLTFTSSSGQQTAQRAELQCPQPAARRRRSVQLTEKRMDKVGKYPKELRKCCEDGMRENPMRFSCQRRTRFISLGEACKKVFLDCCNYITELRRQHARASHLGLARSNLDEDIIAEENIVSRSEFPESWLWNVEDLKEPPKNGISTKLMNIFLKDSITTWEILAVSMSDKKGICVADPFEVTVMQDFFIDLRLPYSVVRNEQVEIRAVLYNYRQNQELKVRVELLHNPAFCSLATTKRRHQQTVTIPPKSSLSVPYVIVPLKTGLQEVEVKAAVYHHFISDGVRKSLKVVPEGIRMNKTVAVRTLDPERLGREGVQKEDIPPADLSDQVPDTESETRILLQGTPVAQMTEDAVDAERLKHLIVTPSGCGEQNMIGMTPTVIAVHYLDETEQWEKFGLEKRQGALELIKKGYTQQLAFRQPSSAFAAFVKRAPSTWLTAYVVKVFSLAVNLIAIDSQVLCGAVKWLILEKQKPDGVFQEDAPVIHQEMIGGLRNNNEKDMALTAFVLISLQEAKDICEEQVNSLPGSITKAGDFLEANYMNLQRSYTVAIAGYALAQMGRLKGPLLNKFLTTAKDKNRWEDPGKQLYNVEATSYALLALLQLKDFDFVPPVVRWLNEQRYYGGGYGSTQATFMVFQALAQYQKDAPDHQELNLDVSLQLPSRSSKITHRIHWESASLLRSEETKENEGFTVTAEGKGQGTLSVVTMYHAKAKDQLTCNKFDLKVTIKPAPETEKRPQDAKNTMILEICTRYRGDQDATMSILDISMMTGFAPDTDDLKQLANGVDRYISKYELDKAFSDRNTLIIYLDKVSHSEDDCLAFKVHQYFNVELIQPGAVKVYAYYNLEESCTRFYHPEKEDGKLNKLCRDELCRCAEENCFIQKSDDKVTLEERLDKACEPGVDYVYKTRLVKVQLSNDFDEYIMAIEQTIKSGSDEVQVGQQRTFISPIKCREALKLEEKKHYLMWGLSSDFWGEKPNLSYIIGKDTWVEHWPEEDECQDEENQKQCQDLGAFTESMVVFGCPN
T3 sequence (P01031 678-1676 limits assumed, one chain of several): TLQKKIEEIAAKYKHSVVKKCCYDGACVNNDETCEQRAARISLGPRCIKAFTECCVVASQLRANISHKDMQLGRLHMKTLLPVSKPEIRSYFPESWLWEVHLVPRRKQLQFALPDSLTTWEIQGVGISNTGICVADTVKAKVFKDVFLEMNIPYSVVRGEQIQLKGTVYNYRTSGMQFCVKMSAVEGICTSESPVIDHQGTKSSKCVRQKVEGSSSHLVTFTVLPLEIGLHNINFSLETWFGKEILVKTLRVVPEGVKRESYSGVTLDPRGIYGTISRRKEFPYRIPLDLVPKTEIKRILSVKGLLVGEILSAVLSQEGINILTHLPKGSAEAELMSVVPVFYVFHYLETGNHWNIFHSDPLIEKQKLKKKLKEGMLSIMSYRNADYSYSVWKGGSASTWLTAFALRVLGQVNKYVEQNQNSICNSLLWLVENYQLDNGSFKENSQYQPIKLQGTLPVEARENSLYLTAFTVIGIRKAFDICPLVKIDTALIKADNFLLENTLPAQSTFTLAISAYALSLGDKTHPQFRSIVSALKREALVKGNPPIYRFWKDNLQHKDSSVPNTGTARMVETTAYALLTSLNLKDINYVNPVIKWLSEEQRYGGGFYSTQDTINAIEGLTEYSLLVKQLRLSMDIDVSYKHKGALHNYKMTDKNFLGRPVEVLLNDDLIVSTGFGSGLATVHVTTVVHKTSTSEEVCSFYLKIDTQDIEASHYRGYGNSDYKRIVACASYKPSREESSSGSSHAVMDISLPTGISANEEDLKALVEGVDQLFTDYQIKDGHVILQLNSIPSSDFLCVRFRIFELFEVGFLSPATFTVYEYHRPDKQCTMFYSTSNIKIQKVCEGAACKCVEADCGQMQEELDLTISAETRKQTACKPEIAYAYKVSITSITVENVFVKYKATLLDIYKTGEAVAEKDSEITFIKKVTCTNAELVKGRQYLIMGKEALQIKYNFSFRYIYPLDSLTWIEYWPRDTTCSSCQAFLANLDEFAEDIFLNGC
T1 sequence (P01031 678-1676 limits assumed): as the sequence (P01031 678-1676 limits assumed, one chain of several) above

B1: TS-A12/22: anti-C5 scFv obtained from TS-A12 by VL chain shuffling; VH3/V-48 and Vλ3/V2-14; amino acid sequence SEQ ID NO:6 (protein, listed as Homo sapiens)
scFv: DIRMTQSPDSLAVSLGERATINCKSSQSVLYSSNNKNYLAWYQQKPGQPPKLLIYWASTRESGVPDRFSGSGSGTDFTLTISSLQAEDVAVYYCQQYYSTPQLTFGGRTKVDIKSGGSTITSYNVYYTKLSSSGTQVQLQQSEGGVVQPGRSLRLSCAASGFTFSSYGMNWVRQAPGKGLEWVSYISSSSSTIYYADSVKGRFTISRDNSKNTLYLQMNSLRAEDTAVYYCARGPGMDVWGQGTTVTVSS
- recognition of C5 alpha sub-unit (C5 alpha chain): recognises
- recognition of C5 beta sub-unit (C5 beta chain): does not recognise
- recognition of C5 beta sub-unit (C5 beta chain; listed as TSA-12/22): not
- inhibition of hemolytic activity in serum [1]: capable of inhibiting
- inhibition of hemolytic activity in serum [2]: capable of inhibiting
- efficiency of inhibition compared with human serum [3]: higher
- inhibition of hemolytic activity in serum ([3]; FIG. 5C): capable of inhibiting
- efficiency of inhibition compared with human serum [4]: practically similar to that of human serum; also recorded: higher
- inhibition of hemolytic activity in serum ([4]; FIG. 5B): capable of inhibiting
- cross-reactivity with C3 (C3): not found
- cross-reactivity with C4 (C4): not found
